Results published in patent publication US20230236188A1.

Target: CD40 on human B cells (human) (UniProt P25942)
Test: cell-based or functional assay

UniProt P25942, sequence (P25942 21-277): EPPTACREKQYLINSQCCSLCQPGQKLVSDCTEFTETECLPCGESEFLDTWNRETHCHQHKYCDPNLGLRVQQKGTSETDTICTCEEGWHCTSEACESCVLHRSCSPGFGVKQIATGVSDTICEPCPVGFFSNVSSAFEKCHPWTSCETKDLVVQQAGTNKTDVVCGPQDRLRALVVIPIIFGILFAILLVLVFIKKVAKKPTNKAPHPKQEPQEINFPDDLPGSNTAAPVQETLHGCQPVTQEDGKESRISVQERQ

| Substance | average CD40 internalization score after co-culture with 10% hCD40L-CHO cells | average CD40 internalization score on fresh B cells co-cultured 1 h with autologous CD40L-IZ-stimulated B cells that had upregulated CD40L | percent of B cells with CD40 downregulation after 1 h co-incubation with 1% hCD40L-CHO cells | percent of B cells with CD40 internalization after co-culture with 10% hCD40L-CHO cells | percent of B cells with NF-kB p50 nuclear translocation after hCD40L-CHO cells (unstimulated: 29%) | percent of fresh B cells with internalized CD40 after co-culture with autologous CD40L-IZ-stimulated B cells that had upregulated CD40L | percent of fresh B cells with p50 nuclear translocation after co-culture with CD40L-IZ-stimulated B cells | percent of total CD40lo/- B cells after 1 h co-incubation with 10% hCD40L-CHO cells | average CD40 internalization score after 1 h stimulation (unstimulated: 0.41) | percent of B cells with NF-kB p50 nuclear translocation (unstimulated: 29%) | percent of B cells with internalized CD40 (internalization score >2.5; unstimulated: 2.1%) |
| --- | --- | --- | --- | --- | --- | --- | --- | --- | --- | --- | --- |
| human CD40 ligand (CD40L), membrane form on cells (from UniProt P29965 1-261) | 1.69 | 1.26 | 5% | 33% | 54% | 19.5% | 41% | 37% |  |  |  |
| human CD40L isoleucine zipper (CD40L-IZ) (from UniProt P29965 113-261) (ligand) |  |  |  |  |  |  |  |  | 2.09 | 58% | 42% |
